Data reported in article PMC6355003, “New interfaces on MiD51 for Drp1 recruitment and regulation” (PLoS ONE, 2019).

What was measured:
[1] = molecular target: the molecule itself; experiment: SEC; Superdex 200 PC 3.2/20; purified Drp1 and Drp1 mutants
[2] = molecular target: the molecule itself; experiment: non-reducing SDS-PAGE; purified MiD51^133-463 in the air; time course, dimer quantified every twenty-four hours; wild type and mutants compared

Row | Protein | binding result [1] | binding result [2] | further results
1 | Drp1 (dynamin-related protein Drp1), wild type (natural protein, UniProt O00429-4 1-699, looked up, Drp1, GenBank NM_005690; also called wild-type Drp1; source: E. coli Rosseta (DE3), purified (Ni-NTA, anion exchange, size-exclusion chromatography)) MEALIPVINKLQDVFNTVGADIIQLPQIVVVGTQSSGKSSVLESLVGRDLLPRGTGIVTRRPLILQLVHVSQEDKRKTTGEENGVEAEEWGKFLHTKNKLYTDFDEIRQEIENETERISGNNKGVSPEPIHLKIFSPNVVNLTLVDLPGMTKVPVGDQPKDIELQIRELILRFISNPNSIILAVTAANTDMATSEALKISREVDPDGRRTLAVITKLDLMDAGTDAMDVLMGRVIPVKLGIIGVVNRSQLDINNKKSVTDSIRDEYAFLQKKYPSLANRNGTKYLARTLNRLLMHHIRDCLPELKTRINVLAAQYQSLLNSYGEPVDDKSATLLQLITKFATEYCNTIEGTAKYIETSELCGGARICYIFHETFGRTLESVDPLGGLNTIDILTAIRNATGPRPALFVPEVSFELLVKRQIKRLEEPSLRCVELVHEEMQRIIQHCSNYSTQELLRFPKLHDAIVEVVTCLLRKRLPVTNEMVHNLVAIELAYINTKHPDFADACGLMNNNIEEQRRNRLARELPSAVSRDKVASGGGGVGDGVQEPTTGNWRGMLKTSKAEELLAEEKSKPIPIMPASPQKGHAVNLLDVPVPVARKLSAREQRDCEVIERLIKSYFLIVRKNIQDSVPKAVMHFLVNHVKDTLQSELVGQLYKSSLLDDLLTESEDMAQRRKEAADMLKALQGASQIIAEIRETHLW | binds | – | –
2 | Drp1 S600D (natural protein, UniProt O00429-4 1-699, looked up, Drp1, GenBank NM_005690; S600 is S637 in Drp1 isoform 1 (printed); also called phosphorylation site mutant (related to S637 in Drp1 isoform 1); source: E. coli Rosseta (DE3), purified (Ni-NTA, anion exchange, size-exclusion chromatography)) MEALIPVINKLQDVFNTVGADIIQLPQIVVVGTQSSGKSSVLESLVGRDLLPRGTGIVTRRPLILQLVHVSQEDKRKTTGEENGVEAEEWGKFLHTKNKLYTDFDEIRQEIENETERISGNNKGVSPEPIHLKIFSPNVVNLTLVDLPGMTKVPVGDQPKDIELQIRELILRFISNPNSIILAVTAANTDMATSEALKISREVDPDGRRTLAVITKLDLMDAGTDAMDVLMGRVIPVKLGIIGVVNRSQLDINNKKSVTDSIRDEYAFLQKKYPSLANRNGTKYLARTLNRLLMHHIRDCLPELKTRINVLAAQYQSLLNSYGEPVDDKSATLLQLITKFATEYCNTIEGTAKYIETSELCGGARICYIFHETFGRTLESVDPLGGLNTIDILTAIRNATGPRPALFVPEVSFELLVKRQIKRLEEPSLRCVELVHEEMQRIIQHCSNYSTQELLRFPKLHDAIVEVVTCLLRKRLPVTNEMVHNLVAIELAYINTKHPDFADACGLMNNNIEEQRRNRLARELPSAVSRDKVASGGGGVGDGVQEPTTGNWRGMLKTSKAEELLAEEKSKPIPIMPASPQKGHAVNLLDVPVPVARKLDAREQRDCEVIERLIKSYFLIVRKNIQDSVPKAVMHFLVNHVKDTLQSELVGQLYKSSLLDDLLTESEDMAQRRKEAADMLKALQGASQIIAEIRETHLW | binds | – | –
3 | Drp1 K38A (natural protein, UniProt O00429-4 1-699, looked up, Drp1, GenBank NM_005690; also called K38A mutant of Drp1; dominant-negative GTPase mutation K38A; source: E. coli Rosseta (DE3), purified (Ni-NTA, anion exchange, size-exclusion chromatography)) MEALIPVINKLQDVFNTVGADIIQLPQIVVVGTQSSGASSVLESLVGRDLLPRGTGIVTRRPLILQLVHVSQEDKRKTTGEENGVEAEEWGKFLHTKNKLYTDFDEIRQEIENETERISGNNKGVSPEPIHLKIFSPNVVNLTLVDLPGMTKVPVGDQPKDIELQIRELILRFISNPNSIILAVTAANTDMATSEALKISREVDPDGRRTLAVITKLDLMDAGTDAMDVLMGRVIPVKLGIIGVVNRSQLDINNKKSVTDSIRDEYAFLQKKYPSLANRNGTKYLARTLNRLLMHHIRDCLPELKTRINVLAAQYQSLLNSYGEPVDDKSATLLQLITKFATEYCNTIEGTAKYIETSELCGGARICYIFHETFGRTLESVDPLGGLNTIDILTAIRNATGPRPALFVPEVSFELLVKRQIKRLEEPSLRCVELVHEEMQRIIQHCSNYSTQELLRFPKLHDAIVEVVTCLLRKRLPVTNEMVHNLVAIELAYINTKHPDFADACGLMNNNIEEQRRNRLARELPSAVSRDKVASGGGGVGDGVQEPTTGNWRGMLKTSKAEELLAEEKSKPIPIMPASPQKGHAVNLLDVPVPVARKLSAREQRDCEVIERLIKSYFLIVRKNIQDSVPKAVMHFLVNHVKDTLQSELVGQLYKSSLLDDLLTESEDMAQRRKEAADMLKALQGASQIIAEIRETHLW | binds | – | –
4 | Drp1 S579D (natural protein, UniProt O00429-4 1-699, looked up, Drp1, GenBank NM_005690; S579 is S616 in Drp1 isoform 1 (printed); also called phosphorylation site mutant (related to S616 in Drp1 isoform 1); source: E. coli Rosseta (DE3), purified (Ni-NTA, anion exchange, size-exclusion chromatography)) MEALIPVINKLQDVFNTVGADIIQLPQIVVVGTQSSGKSSVLESLVGRDLLPRGTGIVTRRPLILQLVHVSQEDKRKTTGEENGVEAEEWGKFLHTKNKLYTDFDEIRQEIENETERISGNNKGVSPEPIHLKIFSPNVVNLTLVDLPGMTKVPVGDQPKDIELQIRELILRFISNPNSIILAVTAANTDMATSEALKISREVDPDGRRTLAVITKLDLMDAGTDAMDVLMGRVIPVKLGIIGVVNRSQLDINNKKSVTDSIRDEYAFLQKKYPSLANRNGTKYLARTLNRLLMHHIRDCLPELKTRINVLAAQYQSLLNSYGEPVDDKSATLLQLITKFATEYCNTIEGTAKYIETSELCGGARICYIFHETFGRTLESVDPLGGLNTIDILTAIRNATGPRPALFVPEVSFELLVKRQIKRLEEPSLRCVELVHEEMQRIIQHCSNYSTQELLRFPKLHDAIVEVVTCLLRKRLPVTNEMVHNLVAIELAYINTKHPDFADACGLMNNNIEEQRRNRLARELPSAVSRDKVASGGGGVGDGVQEPTTGNWRGMLKTSKAEELLAEEKSKPIPIMPADPQKGHAVNLLDVPVPVARKLSAREQRDCEVIERLIKSYFLIVRKNIQDSVPKAVMHFLVNHVKDTLQSELVGQLYKSSLLDDLLTESEDMAQRRKEAADMLKALQGASQIIAEIRETHLW | binds | – | –
5 | MiD51^133-463, wild type (protein of the dimerization assays) (domain or fragment, human, UniProt Q9NQG6-1 133-463, looked up, the His tag is called N-terminal in the methods and C-terminal in the results; source: E. coli BL21 (DE3), purified) MSLQEKLLTYYRNRAAIPAGEQARAKQAAVDICAELRSFLRAKLPDMPLRDMYLSGSLYDDLQVVTADHIQLIVPLVLEQNLWSCIPGEDTIMNVPGFFLVRRENPEYFPRGSSYWDRCVVGGYLSPKTVADTFEKVVAGSINWPAIGSLLDYVIRPAPPPEALTLEVQYERDKHLFIDFLPSVTLGDTVLVAKPHRLAQYDNLWRLSLRPAETARLRALDQADSGCRSLCLKILKAICKSTPALGHLTASQLTNVILHLAQEEADWSPDMLADRFLQALRGLISYLEAGVLPSALNPKVNLFAELTPEEIDELGYTLYCSLSEPEVLLQT | – | – | stoichiometry N [2]: 2
6 | MiD51^133-463 nucleotide binding site mutant (NBM, H201D/R342E/K368E) (domain or fragment, human, UniProt Q9NQG6-1 133-463, looked up, source: E. coli BL21 (DE3), purified) MSLQEKLLTYYRNRAAIPAGEQARAKQAAVDICAELRSFLRAKLPDMPLRDMYLSGSLYDDLQVVTADDIQLIVPLVLEQNLWSCIPGEDTIMNVPGFFLVRRENPEYFPRGSSYWDRCVVGGYLSPKTVADTFEKVVAGSINWPAIGSLLDYVIRPAPPPEALTLEVQYERDKHLFIDFLPSVTLGDTVLVAKPHRLAQYDNLWRLSLEPAETARLRALDQADSGCRSLCLKILEAICKSTPALGHLTASQLTNVILHLAQEEADWSPDMLADRFLQALRGLISYLEAGVLPSALNPKVNLFAELTPEEIDELGYTLYCSLSEPEVLLQT | – | binds | –
7 | MiD51^133-463 C165S (domain or fragment, human, UniProt Q9NQG6-1 133-463, looked up, source: E. coli BL21 (DE3), purified) MSLQEKLLTYYRNRAAIPAGEQARAKQAAVDISAELRSFLRAKLPDMPLRDMYLSGSLYDDLQVVTADHIQLIVPLVLEQNLWSCIPGEDTIMNVPGFFLVRRENPEYFPRGSSYWDRCVVGGYLSPKTVADTFEKVVAGSINWPAIGSLLDYVIRPAPPPEALTLEVQYERDKHLFIDFLPSVTLGDTVLVAKPHRLAQYDNLWRLSLRPAETARLRALDQADSGCRSLCLKILKAICKSTPALGHLTASQLTNVILHLAQEEADWSPDMLADRFLQALRGLISYLEAGVLPSALNPKVNLFAELTPEEIDELGYTLYCSLSEPEVLLQT | – | binds | –
8 | MiD51^133-463 supposed dimer surface mutant (SDM, R169A/R182A/D183A/Q212A/N213A) (domain or fragment, human, UniProt Q9NQG6-1 133-463, looked up, source: E. coli BL21 (DE3), purified) MSLQEKLLTYYRNRAAIPAGEQARAKQAAVDICAELASFLRAKLPDMPLAAMYLSGSLYDDLQVVTADHIQLIVPLVLEAALWSCIPGEDTIMNVPGFFLVRRENPEYFPRGSSYWDRCVVGGYLSPKTVADTFEKVVAGSINWPAIGSLLDYVIRPAPPPEALTLEVQYERDKHLFIDFLPSVTLGDTVLVAKPHRLAQYDNLWRLSLRPAETARLRALDQADSGCRSLCLKILKAICKSTPALGHLTASQLTNVILHLAQEEADWSPDMLADRFLQALRGLISYLEAGVLPSALNPKVNLFAELTPEEIDELGYTLYCSLSEPEVLLQT | – | binds | –
